Patent US20200188434A1, “A CELL COMPRISING A CHIMERIC ANTIGEN RECEPTOR (CAR)” (AUTOLUS LIMITED, priority 2017, published 2020)
pKd: −log10 of the molar value.

Key:
[1] = system: SKOV3_BCMA cells; settings: 72 hour time point; T cells expressing CAR, membrane tethering component and signal dampening component
Experimental: FIG. 13—A: Results of an Incucyte assay comparing killing of BCMA+ SKOV3 target cells over time in the presence of varying concentrations of rapamycin by T cells expressing an anti-BCMA CAR alone (Left-hand chart) or expressing an anti-BCMA CAR in combination with a membrane tethering component (v5-CD22(2Ig)-TM-FRB) and a signal dampening component (FKBP12-CD148).
B: A summary of the data presented in A at the 72 hour time-point.
SKOV3 cells, were engineered to be BCMA positive for use as target cells. Primary human T-cells from 2 donors were transduced with two CAR constructs: (i) “Classical” anti-BCMA CAR; (ii) the tri-cistronic “dampenable” BCMA CAR system described above, Non-transduced T-cells and T-cells transduced with the different CAR constructs were challenged 8:1 with SKOV3_BCMA cells in the presence of different concentrations of rapamycin and target cell killing was investigated using an incucyte assay.

[2] = target: streptavidin (Streptomyces avidinii, UniProt P22629); settings: biotin mimicking peptides binding streptavidin; read-out: affinity; cited from earlier work
[3] = target: membrane tethering component (v5-CD22(2Ig)-TM-FRB) (human); assay: cell-based or functional assay
membrane tethering component (v5-CD22(2Ig)-TM-FRB) (human), sequence (chain, as listed by the source): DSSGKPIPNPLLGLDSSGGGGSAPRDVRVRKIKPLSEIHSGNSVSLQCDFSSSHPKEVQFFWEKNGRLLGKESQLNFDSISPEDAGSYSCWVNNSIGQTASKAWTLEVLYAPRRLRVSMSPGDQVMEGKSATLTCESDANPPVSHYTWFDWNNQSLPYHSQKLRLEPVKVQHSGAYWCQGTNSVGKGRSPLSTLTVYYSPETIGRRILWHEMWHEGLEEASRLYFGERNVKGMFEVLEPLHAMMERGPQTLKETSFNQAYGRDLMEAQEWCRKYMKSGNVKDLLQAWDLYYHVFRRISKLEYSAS

streptavidin, sequence (P22629 37-163): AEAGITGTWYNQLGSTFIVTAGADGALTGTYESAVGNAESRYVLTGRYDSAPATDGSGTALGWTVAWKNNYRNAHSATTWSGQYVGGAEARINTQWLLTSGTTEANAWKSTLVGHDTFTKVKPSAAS

Compound | pKd [2] | further results
CO[C@H]1C[C@@H]2CC[C@@H](C)[C@@](O)(O2)C(=O)C(=O)N2CCCC[C@H]2C(=O)O[C@H]([C@H](C)C[C@@H]2CC[C@@H](O)[C@H](OC)C2)CC(=O)[C@H](C)/C=C(\C)[C@@H](O)[C@@H](OC)C(=O)[C@H](C)C[C@H](C)/C=C/C=C/C=C/1C [Rapamycin, rapamycin] | – | tested concentrations of Rapamycin at which killing of target cells was significantly inhibited [1]: above 0.82 μM
Biotin mimicking peptide, sequence CHPQGPPC (SEQ ID NO: 41) (Biotin mimicking peptide, ccstreptag) | 6.64 | –
Biotin mimicking peptide, sequence DVEAWLDERVPLVET (SEQ ID NO: 36) (Biotin mimicking peptide, long nanotag) | 8.44 | –
Biotin mimicking peptide, sequence DVEAWLGAR (SEQ ID NO: 37) (Biotin mimicking peptide, short nanotag) | 7.77 | –
Biotin mimicking peptide, sequence WSHPQFEK (SEQ ID NO: 39) [streptagII] | 4.14 | –
signal dampening component (FKBP12-CD148) | – | killing of BCMA+ SKOV3 target cells at the 72 hour time point (incucyte assay); rapamycin concentration above which killing was inhibited [3]: > 0.82 µM; target cells surviving at 50 hours (incucyte assay), T cells co-expressing the CAR with a dampener, with rapamycin [3]: 50%
